What was measured:
Assay in all cases: pull-down binding Z-score (relative to library population); higher = stronger binding
[1] = tested on: TO-3-N3-2 (biotin conjugate); details: RNA library: Library-2
In short: (§1)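 Binding is given as a Z-score against the library mean and standard deviation, calculated after removing the beads-only signal and averaging barcoded replicate probes without their highest and lowest values. Cy5- or Cy3-end-labelled RNA library (1 μg) was heat-folded in phosphate/NaCl/KCl buffer and incubated 60 min at 25 °C with streptavidin beads bearing 100 pmol of biotin-conjugated small molecule. After three washes, RNA eluted in hot SDS was hybridised to a DNA barcode microarray for 20 h at 55.5 °C.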

[2] = tested on: TO-N3-2 (biotin conjugate); details: RNA library: Library-2
In short: as §1

[3] = tested on: TO-3-N3 (biotin conjugate); details: RNA library: Library-2
In short: as §1

TO-N3 (biotin conjugate) = details: RNA library: Library-2
In short: as §1

[4] = tested on: G-clamp-N3 (biotin conjugate); details: RNA library: Library-1 (pre-miRNA loops + repeats)
In short: as §1

CCUGCAGGUGAGAGCGGGAACACCUGCAU [hsa-mir-7112]
pull-down binding Z-score [1]: 0.104 | pull-down binding Z-score [2]: 1.03 | pull-down binding Z-score [3]: -0.176 | pull-down binding Z-score (TO-N3 (biotin conjugate)): 0.311 | pull-down binding Z-score [4]: 0.953

CCUGCCACGUCAAAGGAGGCAGA [hsa-mir-3154]
pull-down binding Z-score [1]: -0.38 | pull-down binding Z-score [2]: 0.137 | pull-down binding Z-score [3]: -0.302 | pull-down binding Z-score (TO-N3 (biotin conjugate)): -0.164 | pull-down binding Z-score [4]: 1.11

CCUGCCCAAAUGGUGGAGCAGAUUCGAGGGGCAGG [hsa-mir-4436b-2_4436b-1]
pull-down binding Z-score [1]: 0.0731 | pull-down binding Z-score [2]: -0.125 | pull-down binding Z-score [3]: -0.218 | pull-down binding Z-score (TO-N3 (biotin conjugate)): -0.282 | pull-down binding Z-score [4]: 2.51

CCUGCCUCAGAACUACUGAACAGAGUCACUGGGUGUGGA [hsa-mir-1289-2]
pull-down binding Z-score [1]: -0.00545 | pull-down binding Z-score [2]: 0.785 | pull-down binding Z-score [3]: -0.292 | pull-down binding Z-score (TO-N3 (biotin conjugate)): 0.181 | pull-down binding Z-score [4]: 0.873

CCUGCCUGCCCUCCAGGUCAUGUUCCAGUGUCCCACAGAUGCAGCACCACGG [hsa-mir-6075]
pull-down binding Z-score [1]: 0.186 | pull-down binding Z-score [2]: 1.54 | pull-down binding Z-score [3]: 0.0521 | pull-down binding Z-score (TO-N3 (biotin conjugate)): 0.616 | pull-down binding Z-score [4]: -0.799

CCUGCUGUGUGAAACAAAAGUAAG [hsa-mir-302c]
pull-down binding Z-score [1]: 0.0469 | pull-down binding Z-score [2]: 0.474 | pull-down binding Z-score [3]: -0.422 | pull-down binding Z-score (TO-N3 (biotin conjugate)): 0.103 | pull-down binding Z-score [4]: -1.08

CCUGGAGAGCUGCUGUCUCCAG [hsa-mir-6746]
pull-down binding Z-score [1]: -0.596 | pull-down binding Z-score [2]: 0.355 | pull-down binding Z-score [3]: -0.114 | pull-down binding Z-score (TO-N3 (biotin conjugate)): 0.0297 | pull-down binding Z-score [4]: 1.35

CCUGUAUGUCUCCCCGCAGCACCGUCAUCGU [hsa-mir-6774]
pull-down binding Z-score [1]: 0.182 | pull-down binding Z-score [2]: 0.832 | pull-down binding Z-score [3]: 0.498 | pull-down binding Z-score (TO-N3 (biotin conjugate)): 0.785 | pull-down binding Z-score [4]: -1.39

CCUGUCCUAUGACAAACAUGGCAGG [hsa-mir-3927]
pull-down binding Z-score [1]: -0.497 | pull-down binding Z-score [2]: -0.673 | pull-down binding Z-score [3]: -0.564 | pull-down binding Z-score (TO-N3 (biotin conjugate)): -0.547 | pull-down binding Z-score [4]: -0.521

CCUGUUUGAAUAUUUCACCAGAAACAGG [hsa-mir-4433b]
pull-down binding Z-score [1]: -0.044 | pull-down binding Z-score [2]: -0.74 | pull-down binding Z-score [3]: -0.311 | pull-down binding Z-score (TO-N3 (biotin conjugate)): -0.402 | pull-down binding Z-score [4]: 1.2

CCUGUUUUACAAAUAAGGAAAUAAACUCAGG [hsa-mir-1321]
pull-down binding Z-score [1]: -0.326 | pull-down binding Z-score [2]: -1.08 | pull-down binding Z-score [3]: -0.59 | pull-down binding Z-score (TO-N3 (biotin conjugate)): -0.94 | pull-down binding Z-score [4]: -1.01

CCUUAGCACUAGCAGGAGG [hsa-mir-612]
pull-down binding Z-score [1]: -0.482 | pull-down binding Z-score [2]: 0.00744 | pull-down binding Z-score [3]: -0.588 | pull-down binding Z-score (TO-N3 (biotin conjugate)): -0.556 | pull-down binding Z-score [4]: 0.101

CCUUCCAAUACCUGUAAGCAGAAGG [hsa-mir-3158-2]
pull-down binding Z-score [1]: 0.0627 | pull-down binding Z-score [2]: 0.397 | pull-down binding Z-score [3]: 0.0988 | pull-down binding Z-score (TO-N3 (biotin conjugate)): 0.0957 | pull-down binding Z-score [4]: 0.355

CCUUCGCUUUAUUUGUGACGAAUC [hsa-mir-154]
pull-down binding Z-score [1]: -0.374 | pull-down binding Z-score [2]: -0.185 | pull-down binding Z-score [3]: -0.799 | pull-down binding Z-score (TO-N3 (biotin conjugate)): -0.676 | pull-down binding Z-score [4]: -0.922

CCUUCUAAUGAGUAUGCUUAACUUGGUAGAAGG [hsa-mir-3914-1]
pull-down binding Z-score [1]: -0.0963 | pull-down binding Z-score [2]: -0.858 | pull-down binding Z-score [3]: -0.108 | pull-down binding Z-score (TO-N3 (biotin conjugate)): -0.141 | pull-down binding Z-score [4]: 0.508

CCUUCUACCAAGUUAAGCAUACUCAUUAGAAGG [hsa-mir-3914-2]
pull-down binding Z-score [1]: -0.151 | pull-down binding Z-score [2]: -0.346 | pull-down binding Z-score [3]: 0.653 | pull-down binding Z-score (TO-N3 (biotin conjugate)): 0.418 | pull-down binding Z-score [4]: -0.275

CCUUCUCCUCUUUGCAGUGAUAAAGGAGG [hsa-mir-4460]
pull-down binding Z-score [1]: -0.351 | pull-down binding Z-score [2]: -0.549 | pull-down binding Z-score [3]: -0.304 | pull-down binding Z-score (TO-N3 (biotin conjugate)): -0.61 | pull-down binding Z-score [4]: -0.412

CCUUCUGCUUACAGGUAUUGGAAGG [hsa-mir-3158-1]
pull-down binding Z-score [1]: -0.401 | pull-down binding Z-score [2]: -0.685 | pull-down binding Z-score [3]: -0.281 | pull-down binding Z-score (TO-N3 (biotin conjugate)): -0.371 | pull-down binding Z-score [4]: 0.832

CCUUCUGUAUACAUGUAUACAGGAGGAAGG [hsa-mir-4716]
pull-down binding Z-score [1]: 0.0583 | pull-down binding Z-score [2]: 0.00714 | pull-down binding Z-score [3]: 0.507 | pull-down binding Z-score (TO-N3 (biotin conjugate)): 0.495 | pull-down binding Z-score [4]: 0.64

CCUUGCCUGUGGCAAGACCACUUCGGUUCAAGG [hsa-mir-4295]
pull-down binding Z-score [1]: -0.191 | pull-down binding Z-score [2]: 0.237 | pull-down binding Z-score [3]: 0.0272 | pull-down binding Z-score (TO-N3 (biotin conjugate)): 0.0379 | pull-down binding Z-score [4]: 0.54

CCUUGUGAAUGUCGGGCAAUGG [hsa-mir-4701]
pull-down binding Z-score [1]: 0.357 | pull-down binding Z-score [2]: 0.503 | pull-down binding Z-score [3]: -0.0355 | pull-down binding Z-score (TO-N3 (biotin conjugate)): 0.267 | pull-down binding Z-score [4]: 1.59

CCUUUCCCCUCAGACCAAGG [hsa-mir-3131]
pull-down binding Z-score [1]: -0.26 | pull-down binding Z-score [2]: -0.176 | pull-down binding Z-score [3]: -0.315 | pull-down binding Z-score (TO-N3 (biotin conjugate)): -0.412 | pull-down binding Z-score [4]: -0.0682

CCUUUGUGAGCAGUGUGACCCAAGGCCUGUGGACAGGG [hsa-mir-555]
pull-down binding Z-score [1]: -0.351 | pull-down binding Z-score [2]: 1.15 | pull-down binding Z-score [3]: -0.0854 | pull-down binding Z-score (TO-N3 (biotin conjugate)): 0.241 | pull-down binding Z-score [4]: 0.911

CGACUCCGUGGCAGAGUUCA [hsa-mir-3666]
pull-down binding Z-score [1]: -0.00234 | pull-down binding Z-score [2]: 0.845 | pull-down binding Z-score [3]: 0.331 | pull-down binding Z-score (TO-N3 (biotin conjugate)): 0.805 | pull-down binding Z-score [4]: -1.1

CGAGAAGCGCCUGCGUCUCCCAUUUUCG [hsa-mir-3944]
pull-down binding Z-score [1]: 0.16 | pull-down binding Z-score [2]: 1.37 | pull-down binding Z-score [3]: 0.199 | pull-down binding Z-score (TO-N3 (biotin conjugate)): 0.763 | pull-down binding Z-score [4]: -1

CGAGACACAGAAACAGACACCUGCCCUCGA [hsa-mir-151b]
pull-down binding Z-score [1]: 0.464 | pull-down binding Z-score [2]: 1.69 | pull-down binding Z-score [3]: 0.442 | pull-down binding Z-score (TO-N3 (biotin conjugate)): 1.21 | pull-down binding Z-score [4]: -2.29

CGAGCCGCUUCCUCACGGCUCG [hsa-mir-4665]
pull-down binding Z-score [1]: -0.853 | pull-down binding Z-score [2]: -0.871 | pull-down binding Z-score [3]: -0.622 | pull-down binding Z-score (TO-N3 (biotin conjugate)): -1.04 | pull-down binding Z-score [4]: 0.651

CGAGGUGG [hsa-mir-4302]
pull-down binding Z-score [1]: -0.0533 | pull-down binding Z-score [2]: 0.675 | pull-down binding Z-score [3]: 0.954 | pull-down binding Z-score (TO-N3 (biotin conjugate)): 0.973 | pull-down binding Z-score [4]: -0.91

CGAGGUGGGCUAGGCUCGGGCCCGUGGCG [hsa-mir-3656]
pull-down binding Z-score [1]: 0.185 | pull-down binding Z-score [2]: 2.8 | pull-down binding Z-score [3]: 0.715 | pull-down binding Z-score (TO-N3 (biotin conjugate)): 1.7 | pull-down binding Z-score [4]: 2.89

CGAGUCUGAGCCUUUAAAAGCCACUCU [hsa-mir-1287]
pull-down binding Z-score [1]: -0.012 | pull-down binding Z-score [2]: 0.586 | pull-down binding Z-score [3]: -0.321 | pull-down binding Z-score (TO-N3 (biotin conjugate)): 0.0262 | pull-down binding Z-score [4]: -1.4

CGAUAAACCCCUAAAUAGGGACUUUCCCG [hsa-mir-484]
pull-down binding Z-score [1]: -0.266 | pull-down binding Z-score [2]: -0.157 | pull-down binding Z-score [3]: -0.473 | pull-down binding Z-score (TO-N3 (biotin conjugate)): -0.511 | pull-down binding Z-score [4]: -0.934

CGCCAGCUCGCUGACAGCACGACUCAGGGCG [hsa-mir-658]
pull-down binding Z-score [1]: 0.383 | pull-down binding Z-score [2]: 1.15 | pull-down binding Z-score [3]: -0.127 | pull-down binding Z-score (TO-N3 (biotin conjugate)): 0.25 | pull-down binding Z-score [4]: 0.902

CGCGCCCGGCCUAACUUUUAAGAAACGUCGGCCCGGGAGCG [hsa-mir-5095]
pull-down binding Z-score [1]: 0.695 | pull-down binding Z-score [2]: 1.15 | pull-down binding Z-score [3]: 1.24 | pull-down binding Z-score (TO-N3 (biotin conjugate)): 1.27 | pull-down binding Z-score [4]: -0.0298

CGCGCGUCGAGUCAGCCGUGUG [hsa-mir-933]
pull-down binding Z-score [1]: -0.276 | pull-down binding Z-score [2]: 0.532 | pull-down binding Z-score [3]: -0.126 | pull-down binding Z-score (TO-N3 (biotin conjugate)): 0.126 | pull-down binding Z-score [4]: 1.31

CGCGGAGCAGCGCUGGGUGCAGCGCCUG [hsa-mir-4508]
pull-down binding Z-score [1]: -0.27 | pull-down binding Z-score [2]: 1.5 | pull-down binding Z-score [3]: -0.051 | pull-down binding Z-score (TO-N3 (biotin conjugate)): 0.334 | pull-down binding Z-score [4]: -0.567

CGCGGGCGGGUCCCAGGCUGGGCCCCUCGGAGGCCGGGUGCUCACUGCCCCGUCCCGG [hsa-mir-6789]
pull-down binding Z-score [1]: -0.0304 | pull-down binding Z-score [2]: 4.13 | pull-down binding Z-score [3]: 0.75 | pull-down binding Z-score (TO-N3 (biotin conjugate)): 1.7 | pull-down binding Z-score [4]: 0.322

CGCUAGUAGUGGCG [hsa-mir-3960]
pull-down binding Z-score [1]: -0.644 | pull-down binding Z-score [2]: -0.869 | pull-down binding Z-score [3]: -0.152 | pull-down binding Z-score (TO-N3 (biotin conjugate)): -0.435 | pull-down binding Z-score [4]: 0.808

— the supplement of paper PMC11865577
